From IntAct's records for PubMed 16107882

B1: Bud site selection protein 14 (Saccharomyces cerevisiae), P27637 (parent)
chain: MSNKEEHVDETSASGVKEVSSIAARHDNGYAPSLITSTSGMDSFQSHALLNDPTLIEDYSDIINNRPTSGSKLTLGNEDSESMGGSVVVTPTSNKSSPFNSKLNILSNAAEKGHDVLRNRDDDKELEEENVEKHMHSNSKRDQRHYKENSSELPDSYDYSDSEFEDNLERRLQEIETDSVDSADKDEVHFSVNNTMNPDVDDFSDGLKYAISEDEDEEENYSDDDDFDRKFQDSGFQGEKDDLEEENDDYQPLSPPRELDPDKLYALYAFNGHDSSHCQLGQDEPCILLNDQDAYWWLVKRITDGKIGFAPAEILETFPERLARLNCWKNENMSSQSVASSDSKDDSISSGNKNQSDAESIIPTPALNGYGKGNKSVSFNDVVGYADRFIDDAIEDTSLDSNDDGGEGNGQSYDDDVDNDKETKVTHRDEYTEAKLNFGKFQDDDTSDVVSDVSFSTSLNTPLNVKKVRRQDNKNESEPKTSSSKDREDDYNANRYVGQEKSEPVDSDYDTDLKKVFEAPRMPFANGMAKSDSQNSLSTIGEFSPSSSEWTNESPSTPIVEESSSIPSSRAIKDISQYIHAKSKIEETTNVENTEGQIQASLGSSGGMANQTDAEQPKEELEKHHSTPEEEKQSTLSLHSSSEEDFYMDEQRAVSSASINSSLSGSRALSNTNMSDPASKPNSLVQHLYAPVFDRMDVLMKQLDEIIRK

Variants of: B1
Details: with pp12_yeast GLC7, P32598
Sequence of pp12_yeast GLC7, P32598 (P32598 whole entry): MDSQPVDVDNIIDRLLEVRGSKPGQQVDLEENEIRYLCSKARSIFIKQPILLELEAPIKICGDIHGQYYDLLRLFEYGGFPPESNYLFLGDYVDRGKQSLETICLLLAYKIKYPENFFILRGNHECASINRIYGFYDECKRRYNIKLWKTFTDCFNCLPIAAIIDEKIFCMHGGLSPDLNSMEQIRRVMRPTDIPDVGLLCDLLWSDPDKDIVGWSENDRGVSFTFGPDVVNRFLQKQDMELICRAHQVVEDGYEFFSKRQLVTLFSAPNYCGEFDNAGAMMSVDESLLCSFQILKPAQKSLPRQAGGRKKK

Variant	effect of a mutation on the interaction
F379A	decreasing interaction
V377A	decreasing interaction

Variants of: B1
Details: with bem2_yeast BEM2, P39960
Sequence of bem2_yeast BEM2, P39960 (P39960 whole entry): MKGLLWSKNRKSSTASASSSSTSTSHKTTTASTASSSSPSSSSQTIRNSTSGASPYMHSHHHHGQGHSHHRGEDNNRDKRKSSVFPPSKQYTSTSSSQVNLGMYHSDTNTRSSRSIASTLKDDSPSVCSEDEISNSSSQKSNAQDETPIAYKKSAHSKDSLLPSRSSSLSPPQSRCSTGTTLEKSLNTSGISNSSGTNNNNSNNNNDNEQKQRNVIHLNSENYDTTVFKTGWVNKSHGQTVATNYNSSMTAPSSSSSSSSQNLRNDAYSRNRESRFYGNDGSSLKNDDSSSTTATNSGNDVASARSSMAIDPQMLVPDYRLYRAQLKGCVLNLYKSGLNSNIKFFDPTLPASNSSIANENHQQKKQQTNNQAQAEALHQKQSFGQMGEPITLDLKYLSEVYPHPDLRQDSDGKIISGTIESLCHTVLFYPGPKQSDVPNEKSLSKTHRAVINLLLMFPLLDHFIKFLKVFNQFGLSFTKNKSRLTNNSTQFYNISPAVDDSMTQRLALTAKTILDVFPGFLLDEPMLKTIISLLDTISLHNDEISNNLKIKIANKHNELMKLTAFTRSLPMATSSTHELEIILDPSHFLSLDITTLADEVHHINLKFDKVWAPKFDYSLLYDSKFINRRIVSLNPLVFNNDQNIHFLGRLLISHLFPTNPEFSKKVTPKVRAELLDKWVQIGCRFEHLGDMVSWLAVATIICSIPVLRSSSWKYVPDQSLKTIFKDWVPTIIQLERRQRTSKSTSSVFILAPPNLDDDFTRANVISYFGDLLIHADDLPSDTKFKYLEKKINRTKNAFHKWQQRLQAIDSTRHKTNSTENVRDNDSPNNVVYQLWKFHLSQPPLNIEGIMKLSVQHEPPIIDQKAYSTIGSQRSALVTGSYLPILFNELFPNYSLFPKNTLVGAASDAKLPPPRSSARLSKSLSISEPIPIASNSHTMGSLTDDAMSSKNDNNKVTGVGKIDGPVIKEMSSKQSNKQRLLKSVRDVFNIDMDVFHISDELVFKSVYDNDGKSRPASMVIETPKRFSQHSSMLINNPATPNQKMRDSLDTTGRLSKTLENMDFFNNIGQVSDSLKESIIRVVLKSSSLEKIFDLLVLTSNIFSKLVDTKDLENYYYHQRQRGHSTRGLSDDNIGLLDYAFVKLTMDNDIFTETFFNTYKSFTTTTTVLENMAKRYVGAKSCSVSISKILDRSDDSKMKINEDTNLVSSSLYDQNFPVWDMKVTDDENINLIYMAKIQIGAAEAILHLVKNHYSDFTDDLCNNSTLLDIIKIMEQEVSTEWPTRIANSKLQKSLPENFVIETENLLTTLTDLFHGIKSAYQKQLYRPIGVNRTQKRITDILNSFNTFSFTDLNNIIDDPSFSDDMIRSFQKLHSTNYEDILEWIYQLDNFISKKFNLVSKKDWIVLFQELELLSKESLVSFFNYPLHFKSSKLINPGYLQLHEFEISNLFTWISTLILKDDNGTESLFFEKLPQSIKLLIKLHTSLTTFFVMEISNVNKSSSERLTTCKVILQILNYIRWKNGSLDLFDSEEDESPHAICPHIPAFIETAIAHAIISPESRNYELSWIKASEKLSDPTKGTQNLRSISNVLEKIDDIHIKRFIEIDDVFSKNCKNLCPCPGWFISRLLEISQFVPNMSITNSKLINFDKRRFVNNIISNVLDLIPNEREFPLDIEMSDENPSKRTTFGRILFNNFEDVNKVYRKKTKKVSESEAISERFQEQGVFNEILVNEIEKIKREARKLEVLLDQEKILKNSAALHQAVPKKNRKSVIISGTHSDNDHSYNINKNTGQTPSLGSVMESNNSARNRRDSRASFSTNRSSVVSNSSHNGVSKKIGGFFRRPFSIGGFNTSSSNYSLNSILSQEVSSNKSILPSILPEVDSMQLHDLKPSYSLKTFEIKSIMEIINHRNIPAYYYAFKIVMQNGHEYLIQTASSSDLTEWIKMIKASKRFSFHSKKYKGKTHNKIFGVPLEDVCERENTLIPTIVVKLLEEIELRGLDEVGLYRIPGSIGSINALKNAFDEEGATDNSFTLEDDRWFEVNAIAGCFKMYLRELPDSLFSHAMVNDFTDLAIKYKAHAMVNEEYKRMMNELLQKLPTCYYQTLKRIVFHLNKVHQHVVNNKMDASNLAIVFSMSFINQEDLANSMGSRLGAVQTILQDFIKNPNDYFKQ

Variant	effect of a mutation on the interaction
F379A	decreasing interaction
